Assay results published in US11260100B2, “Compositions targeting the interaction domain between p27Kip1 and Brk and methods of use thereof to inhibit p27 Y phosphorylation and cdk4 activity” (The Research Foundation for the State University of New York, priority 2014, dated 2022).

How the values were obtained:
[1] = tested on: MCF7 cells; test: Tetracycline inducible Alt Brk expression in MCF7 cells; type: cell-based, human; conditions: +Tet
Description: FIGS. 8A-8G: Alt Brk (SEQ ID NO: 17) acts as an endogenous inhibitor of Brk. (FIG. 8A) Flag tagged WT p27 was incubated with increasing amount of Flag tagged Alt-Brk (lanes 5-7) in presence of equal amount of Brk. Lane 5: +equimolar Brk and Alt, lane 6: ++2.5×Alt, lane 7: +++5×Alt Immunoblot analysis was performed using Flag, pY88 and pY74 antibodies. (FIG. 8B) Alt-Brk expressing cells were plated on day 0. They were induced (+Tet) or uninduced (−Tet) on day 1 and cells were harvested on days 2, 3 and 4 Immunoblot analysis was performed using N-terminal Brk, C-terminal Brk, Rb, Ser780 pRb, Flag or Actin antibodies. (FIG. 8C) p27 was immunoprecipitated from induced (+) or un-induced (−) Alt Brk expressing cells and immunoblot analysis was performed with p27, pY88 and pY74 antibodies. (FIG. 8D) Alt Brk or TRE3G vector alone cells were treated with + or −Tet and cell counts were used to monitor proliferation. […] (FIG. 8F) p27 was immunoprecipitated from MCF7 cells that were either contact arrested (G0), asynchronous (A), or serum starved with 1% and 0% serum for 48 h. Immunoblot analysis was performed to probe for p27, pY88 and pY74. IgG and Mv1Lu lysates served as a negative control. (FIG. 8G) Expression of WT or mutant p27s was induced by adding Tetracycline to the culture media. p27 was immunoprecipitated from cell lysates and probed for p27, pY88 and pY74 Immunoprecipitation with IgG served as a negative control.
NP-ALT was added to cell media in the absence of fetal bovine serum for 6 hours. This media was removed and replaced with FBS+media, and cells were allowed to recover for 2 days, at which time, cell counts were determined. Counts were standardized to the proliferation seen in the NO FBS untreated control. • Expression in vivo. Generation of the WT-Brk, KM-Brk, and YF-Brk has been described (32) Amphotropic retroviruses were generated by transfection using Lipofectamine 2000 (Life Technologies 11668-019) of HEK 293 cells with pAmpho envelope and pBabe or pTRE3G tetracycline inducible constructs. Following viral infection of MCF7 cells, stable integrants were isolated by puromycin selection. Colonies were pooled to generate stable, puromycin resistant clones. Stable expression was verified by immunoblot and immunofluorescence analysis. Tetracycline inducible expression was achieved by the addition of TetExpress (Clontech) to the media. • Mouse xenograft model. Female NOD/SCID 8 week old mice were injected with MCF7-ALT cells in the 4th mammary gland. Tumors were allowed to develop to a volume of 200 mm3, before treatment. Tumor volume was monitored every other day using digital calipers. Vehicle: daily gavage with PBS. […] Doxy+PD: Daily gavage of Palbociclib 100 mg/kg and 0.1 mg/ml doxycycline added to the drinking water. • Quantitative RT-PCR. […]

[2] = target: T1, Brk phosphorylation of p27 (Homo sapiens, UniProt P46527+Q13882); test: In vitro Brk phosphorylation of p27 with competitor, pY88/pY74 immunoblot; type: biochemical; conditions: increasing amounts of competitor
T1 construct: were incubated with p27 before the addition of full length Brk and ATP; We incubated full length p27 with Src or Brk in the presence of ATP; purchased SignalChem (GST-PTK6/Brk) or Invitrogen (His-PTK6/Brk); host or cells: p27 made in house in E. coli
Description: FIGS. 3A-3D: SH3:PxxP interaction is required for p27 Y88 phosphorylation. (FIG. 3A) p27 and Brk were incubated with ATP and with increasing concentrations of the PxxP competitor, F58-106, followed by immunoblot analysis with pY88, pY74 and p27 antibodies. Lane 5: +equimolar amount of F58-106 and p27, lane 6: ++2.5×F58-106, lane 7: +++5×F58-106, lane 8: ++++10×F58-106. (FIG. 3B) GST-Brk, p27 and F58-106 were incubated, immunoprecipitated with GST antibodies, followed by immunblot analysis with GST or p27 antibodies. (FIG. 3C) Increasing amounts of GST-SH3, GST-SH2 or GST peptides were incubated with p27, followed by immunoblot analysis with pY88, pY74, p27 and GST antibodies. Lanes 3, 5, 7: 2.5× competitor, lanes 4, 6, […]: 5× competitor. (FIG. 3D) GST-SH3, GST-SH2 or GST peptides were incubated with p27 or ΔK1/K3, followed by metal agarose chromatography and immunoblot analysis with GST and p27 antibodies. Loading control: GST peptides added to the reaction which are not representative of association.
FIGS. 8A-8G: Alt Brk (SEQ ID NO: 17) acts as an endogenous inhibitor of Brk. […]
To directly verify this, we expressed a Flag-tagged Alt-Brk in bacteria and purified this 15 Kd protein (FIG. 8A). When p27 was incubated with Brk, Y88 and Y74 phosphorylation was detected by immunoblot analysis (FIG. 8A, lane 3). […]

T1 sequence (Q13882 whole entry): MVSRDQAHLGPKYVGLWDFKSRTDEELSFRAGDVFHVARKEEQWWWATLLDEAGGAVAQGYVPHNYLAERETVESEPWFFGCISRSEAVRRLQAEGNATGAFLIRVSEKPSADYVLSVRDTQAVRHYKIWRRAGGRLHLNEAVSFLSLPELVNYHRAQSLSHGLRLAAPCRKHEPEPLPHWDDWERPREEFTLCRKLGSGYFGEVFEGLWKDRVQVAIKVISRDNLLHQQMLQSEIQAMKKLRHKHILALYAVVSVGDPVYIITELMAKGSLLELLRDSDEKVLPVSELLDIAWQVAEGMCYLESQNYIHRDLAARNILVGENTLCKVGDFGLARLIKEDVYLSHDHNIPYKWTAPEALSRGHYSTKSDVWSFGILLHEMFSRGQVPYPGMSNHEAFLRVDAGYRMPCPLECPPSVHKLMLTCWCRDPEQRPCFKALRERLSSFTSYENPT
T1 sequence (P46527 whole entry): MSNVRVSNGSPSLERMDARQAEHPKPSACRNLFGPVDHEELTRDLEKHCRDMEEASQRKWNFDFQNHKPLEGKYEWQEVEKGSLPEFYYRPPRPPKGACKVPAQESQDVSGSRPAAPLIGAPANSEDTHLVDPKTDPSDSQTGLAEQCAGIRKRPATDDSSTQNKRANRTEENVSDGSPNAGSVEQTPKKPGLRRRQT

B1: Alt-Brk: alternative splice variant of Brk (SEQ ID NO: 17), 15 KD protein with SH3 domain, lacks kinase domain (protein, listed as Homo sapiens)
chain: MVSRDQAHLGPKYVGLWDFKSRTDEELSFRAGDVFHVARKEEQWWWATLLDEAGGAVAQGYVPHNYLAERETVESEPAGHAGCAALQDLAACRGPAAPERGGVLPQPARACELPQGPEPVPRPAAGRALPEARA
Rb phosphorylation on residue Ser780 [1]: Rb phosphorylation was reduced | cell cycle effect (cell counting, FACS) [1]: arrested in G1 phase | endogenous p27 Y74 phosphorylation [1]: unchanged | endogenous p27 Y88 phosphorylation [1]: reduced | p27 Y74 phosphorylation by Brk [2]: not affected | p27 Y88 phosphorylation by Brk [2]: decreased
